Results from the supplement of paper PMC12042874.
± gives the uncertainty stated by the source.

Test: amyloid nucleation score (Sup35N fusion, yeast selection) (log enrichment); library NNK3; higher = more nucleation; inactive = no reads after selection
How it was run: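 Yeast lacking psi expressed peptides of 20 random codons fused to Sup35N, received 100 μM copper sulfate for 24 hours, and were then grown for 7 days at 30°C on medium lacking adenine and uracil. Illumina sequencing of input and output plasmid inserts provided the reads. Nucleation scores are DiMSum log enrichments of output over input, centred on the mode of non-aggregating sequences. Any sequence with under 100 input reads was excluded.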

Substance | amyloid nucleation score
LYKGSHWDQAFLSVWYLGVL | inactive
FGANHKQVSWWDRMLSGTVR | inactive
THDVFSSVMLGSFSLSSTTN | inactive
GHRRVVSLCYTYMRWI | inactive
LCRGCSLGACGNSGLKYCGW | inactive
GCFGPLCDRLSEWMENCWKK | 0.392 ± 0.35
GLFCNVFMNKCSS | inactive
LNWSKEAWCSYNILLNYGGW | inactive
ASDNWESRPSRSSDKSGVIG | inactive
CYNAKCHFIGYDVAGNSGVW | inactive
GDSLWIFTAGIDCSYRLIFD | inactive
VKRGLVCETSLCRYFFLFGQ | 1.35 ± 0.089
RFEYMGNVMES | inactive
VMVAMTFNWHDALILWDGMV | inactive
CVAECPLA | inactive
WQHSRSLDTSACCPT | inactive
PCPLRTTVW | inactive
FWNVCLDCISR | inactive
ACTRYCWHYFVNIVWCESDF | inactive
KIVFPLNLG | inactive
FNQAHSVTTDREAYRGRCQG | inactive
QSCVIVLKIGFWDVHSSMTF | 0.426 ± 0.19
VTILYASASMESLSLGLCGT | inactive

Substance | amyloid nucleation score
RHVFFLC | inactive
SNARKGLMNVLRRYWLCDWT | -0.412 ± 0.88
FDVKDWPSNNWRSLGNSRVC | inactive
ACSDFSE | inactive
ILYLVR | inactive
PERTPFGSNYIYFVKRTRLL | inactive
TRLKFTLDWELM | 1.06 ± 0.098
VWSFGLLVS | -0.17 ± 1.1
ALYWTEYQ | inactive
DLYIYCFWLDMVITVCKRQK | inactive
RQIMGQKRKNRQESFGFVGC | inactive
MDVYLRCSGYILTPKMAWSQ | inactive
CFFLYCLNFFMRSIERDRDG | 2.24 ± 0.054
GKVNSWIGVRMKLLWSGRFG | inactive
LLGMLIRGDAF | inactive
TSNTGVSVSRFTFSVDRSVG | inactive
VSCSPMYEEYRHGNLAEYNE | -0.559 ± 0.94
KVTMPLQSYTLYSMYICLLS | inactive
DLFCCCYTLS | 1.03 ± 0.2
VPLTRSKYYFRSWRWIDCGG | inactive
ARPMIPMCLLQRAMYPLYSP | inactive
RQVFNAIAFFVLHR | -0.299 ± 0.69
PWFNFECL | inactive

Substance | amyloid nucleation score
LFHHNCWNSNLSKVYMPACN | 0.761 ± 0.1
DCESQQLSSSMWDTPQRWLT | inactive
LFLLFFSAHGQYIRCAIIVR | inactive
CGPFGFMCDAVGSAQFDIMM | inactive
FWLGDM | inactive
KNIKTSIIYSYYALIIR | 2.47 ± 0.074
FKVAH | inactive
AVVLFLGTLQLGCLGLIVQL | -0.424 ± 0.75
PVQPTEARNR | inactive
YFRSK | inactive
ICGCPTYCNEANLLLERN | inactive
HSEADDSLTGYFALVATRVF | inactive
KISLISTNCLYMVFPYRYSR | 2.13 ± 0.06
RMFMWENEMDLSTSRVKGYG | inactive
GMSLECNFIYL | 1.84 ± 0.1
VFCHTAIL | inactive
MSWLKQGLTDR | inactive
LPVHLDNMCFHVVRAEESRR | inactive
YGDWIHATCVICSLSF | 3.39 ± 0.05
FMTVQLLH | 1.85 ± 0.1
YITMNVHSRDASVRWLDF | inactive
RRAYVKQGVEFRIWNCYYWL | 0.667 ± 0.16
NLIVKSNYGAGNDMRCGDYT | inactive

Substance | amyloid nucleation score
SPKFVRWGRQVVSSVRA | inactive
VSLKVIDKNFNFHVMYGCID | inactive
CNYPKFHWLGRSVIKFIDFL | inactive
LDSIPSMSTVLLMSASGCND | inactive
YTVTASQTYFYSCRDGFAFS | inactive
SLRNRLVVTSVDYRMHLRRG | inactive
ESQISEN | inactive
LFRLFVSEARTRLNCRTCNF | -0.285 ± 0.64
FHLYNVW | inactive
VKSFVSFCSGTLSPLMFRSG | 0.535 ± 0.19
FCRLWVRVSSDTFYYSFSGN | 0.537 ± 0.47
RLLKFASYFVKDSRYNPDCF | inactive
LKLYTLLDRNSNKRTNAGMS | -0.469 ± 0.88
YTVGCSYMVWVVFNFFYFSE | 1 ± 0.14
ILVIIKNHFVFFAGR | inactive
RRSLHCIDCSRFPLIFHCTV | inactive
VSSLR | inactive
ITMTCFCIMGAESISNLPMW | 1.33 ± 0.11
VIIYI | inactive
RVYHLIWFFYYLYNGHFISS | inactive
VSSAYLKCSFLKNLAVSLYG | inactive
PLYVQSG | inactive
VALVVHSLR | inactive

Substance | amyloid nucleation score
ENERGKKMSLGYGLELAGTG | inactive
FYPKLPTLSVQDVGHRKPST | inactive
NRTRCGDYILGCQSSFDTCH | inactive
EIVVYFEFLCYFVLEVLKSL | inactive
RKEVLYSYRNHLK | inactive
HFNRVLVPYAFSFIGKMEWF | inactive
RYSGANVDNYVN | inactive
QITRLPSNYVYETWSEKVFY | inactive
AESICALTML | inactive
CRCGSKNTTVRTLLNRGYSE | inactive
FCVPKCYSHWYLVFS | 1.03 ± 0.12
SCYSLSSESSCSVGMCSTLG | inactive
TPRFMVGAVATEGAHIFLRV | inactive
SHWYIYSYSVDPCAGHAAVW | inactive
AKDMEGGQHNDGSDRRNERW | inactive
NLMEHSIGLYAYYYSLNDCS | inactive
MVVSVQIVFVQVTDMVYHVN | 0.393 ± 0.24
GIWCYAITLGFRPAGSTWDS | 1.02 ± 0.15
SQMSPSNDMWLALNV | inactive
AYSYRGHGLGMDGAGPVCLI | inactive
WCARSTWKISIEY | inactive
LRAKFLILWSRFMQGMQGVT | inactive
INFVYSHM | 1.75 ± 0.12

Substance | amyloid nucleation score
VCYPHLYWMDPGWVS | inactive
EWFSMIVSHFNI | inactive
THTSAKDHRVDWLSQL | inactive
HGRAYSRNT | inactive
NAYLCGWL | inactive
NDNINRSPESSALWYD | inactive
RHSNDCMNFEVIILIDSCLE | inactive
RYADHAYLVPKFGQTEQENV | inactive
LSISYSIGGDGDMIGNAACV | inactive
RYDLCLDLALLRGNWWDLYL | inactive
CDMDVFLSNMPSSVVNRSG | inactive
IEFFEYVCVMFFCC | inactive
VIFLGAYHNSLLNRAMHSGH | 1.45 ± 0.12
LLSVICLTSIHF | 2.74 ± 0.067
SVDEVRCTCVYSCGVWPGGC | inactive
GLRDMGDKYVYMVSGGCIYG | 2.19 ± 0.069
ACYFWS | inactive
SSPKMMCSFFDMSTLPFVYD | inactive
PVAVLDG | 0.654 ± 0.18
ESMAFLRSSSLHKFVWTMYR | inactive
ILLCRKYWFFRFTMVV | inactive
IGSNRRSFEVCTYIASKIPL | inactive
KILRRNTWNMFPAALCGVSF | 0.997 ± 0.21

Substance | amyloid nucleation score
LWVRIKARTFNFS | 0.228 ± 0.19
CQSKLKLSMLCRWFRCTIGK | inactive
KTHCCC | inactive
IFIGVGNVGEVLVIYSWQRN | 0.035 ± 0.48
GVVLSYNGTFWRVLINHHMC | inactive
CQPSF | inactive
SLMIG | inactive
CRFWGFDSSINEVGLMQNHL | inactive
LTCWSVVMFTCHP | inactive
INRHGCIGVHTLSLMLRPCV | inactive
PRKTFVKCNRRLNSW | inactive
NIAIGLYRFKMLDGKRSCML | inactive
IALLLQSQLMRHGGFASWNR | inactive
FSFNQWDLLKMSIGCFKRCK | inactive
VCSYSMISHSAKWFVLILEW | inactive
SYFVAAVYYQDERNNGFCGQ | inactive
SFERGMSENLFIVGPGEFVG | inactive
GPEHQSVPRAFHQLRYLIYN | inactive
TIIMR | inactive
ALDIDWFYWYRHQSSPSFFY | inactive
HRPRLGI | inactive
TPLADN | -0.224 ± 0.73
